Results on two molecules are retold here after patent publication US20250205280A1 (Janssen / Centocor, published 2025).

In assay [1] the target is T1, Vβ17 (TRBV19) T cell receptor on Vβ17+CD8+ T cells (human).
T1 construct: whole, on cells; also called Vβ17+ T cells
Description: flow cytometry on M1 peptide expanded CD8+ T cells, PE anti-human IgG4 secondary, % binding; bottom middle panel, second EC50 line, square curve (right of the circles). The method, then: (§1) Binding of Vβ17 bispecific antibodies to its respective tumor associated antigen (TAA) expressing cell line and CD8+ T cells was carried out by flow cytometry. Briefly, 50,000 target cells or CD8+ T cells were incubated at 4° C. for 45 minutes with serial dilutions of various bispecific antibodies or its null arm control bispecific antibodies. After washing with wash buffer (PBS+2% FBS), bispecific antibody bound to cell surface was detected by incubating the cells with PE labelled mouse anti human IgG4 secondary antibody (SouthernBiotech, Birmingham, AL) for 30 minutes at 4° C. Cells were washed with wash buffer (PBS+2% FBS) and the fluorescence of stained cells was measured on Novocyte flow cytometer. Cells were visualized on forward and sideward scatter and doublets were excluded. No secondary antibody control was used to establish background fluorescence and to gate on specific population. Background value was subtracted from main samples to get specific binding value. […] For all binding assays, tumor associated antigen (TAA) expression on cell lines and the abundance of Vβ17+ cells among Pan-T cells or CD8+ T cells were assessed by staining them with specific monoclonal antibody.
(§2) Mouse anti-human IgG4 Fc-PE secondary antibody was used to detect the bispecific antibody using FACS method.
Background: A flow cytometer gives signals particle by particle.

For a further assay, the target named is T2, CD123 on Kasumi-3 cells (UniProt P26951 19-378, limits assumed).
T2 construct: whole, on cells; also called tumor associated antigen (TAA) on Kasumi-3
In words: flow cytometry on Kasumi-3 cells, % binding; top left panel.

In assay [2] the target is T1, Vβ17 (TRBV19) T cell receptor on …. Description: flow cytometry on M1 peptide expanded CD8+ T cells, PE anti-human IgG4 secondary, % binding; bottom right panel, second EC50 line, square curve (right of the circles). The method, then: as §1, §2
In a further assay the target is T3, PSMA on 22Rv1 cells (human, UniProt Q04609 1-750).
T3 construct: whole, on cells; also called 22Rv1 tumor cell line expressing PSMA
Description: flow cytometry on 22Rv1 cells, % binding; top middle panel.

The target of assay [3] is T1, Vβ17 (TRBV19) T cell receptor on …. In words: flow cytometry on M1 peptide expanded CD8+ T cells, PE anti-human IgG4 secondary, % binding; bottom left panel, second EC50 line, square curve (right of the circles). How it is done:
as §1, §2

The target is the same in assay [4]. In words: flow cytometry on total (Vβ17 non-depleted) CD8+ T cells from PBMCs, % binding. How it is done: as §1
Assay [5] addresses T4, IL1RAP on H1975 cells (human, UniProt Q9NPH3 21-570).
T4 construct: whole, on cells; also called ILIRAP; H1975 tumor cell line expressing ILIRAP
T4 sequence (looked up): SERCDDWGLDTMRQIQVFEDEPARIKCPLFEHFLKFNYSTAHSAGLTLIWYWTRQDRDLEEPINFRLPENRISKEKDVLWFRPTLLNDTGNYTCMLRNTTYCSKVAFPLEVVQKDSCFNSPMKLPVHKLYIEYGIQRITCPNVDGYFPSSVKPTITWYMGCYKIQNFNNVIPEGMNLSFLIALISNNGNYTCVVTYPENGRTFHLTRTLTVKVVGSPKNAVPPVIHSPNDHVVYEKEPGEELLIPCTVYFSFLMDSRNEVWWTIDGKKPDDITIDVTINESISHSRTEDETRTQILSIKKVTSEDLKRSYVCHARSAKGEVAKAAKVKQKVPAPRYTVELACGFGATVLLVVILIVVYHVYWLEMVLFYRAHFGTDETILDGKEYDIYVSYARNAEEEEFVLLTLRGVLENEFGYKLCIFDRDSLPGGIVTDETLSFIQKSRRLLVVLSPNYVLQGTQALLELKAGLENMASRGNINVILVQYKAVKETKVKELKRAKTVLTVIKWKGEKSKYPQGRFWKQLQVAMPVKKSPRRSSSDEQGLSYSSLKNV
Description: flow cytometry on H1975 cells, % binding; top right panel.

In assay [6] the target is T1, Vβ17 (TRBV19) T cell receptor on …. Description: flow cytometry on enriched M1 peptide-stimulated CD8+ T cells (day 14), frequency of positive cells, anti-human IgG4 Fc-PE. How it is done:
as §1, §2

The target of assay [7] is T4, IL1RAP on H1975 cells. In words: flow cytometry on H1975 cells expressing IL1RAP, detected with anti-human IgG4 Fc-PE. The method, then: as §1
The target in assay [8] is T1, Vβ17 (TRBV19) T cell receptor on …. In words: flow cytometry on M1 peptide expanded CD8+ T cells, PE anti-human IgG4 secondary, % binding; bottom right panel, first EC50 line, circle curve (left of the squares). How it is done:
as §1, §2

T1 sequence (A0A075B6N1 22-114): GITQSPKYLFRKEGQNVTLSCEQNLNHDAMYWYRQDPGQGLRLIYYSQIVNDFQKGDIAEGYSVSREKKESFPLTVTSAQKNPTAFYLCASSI
T2 sequence (P26951 19-378 limits assumed): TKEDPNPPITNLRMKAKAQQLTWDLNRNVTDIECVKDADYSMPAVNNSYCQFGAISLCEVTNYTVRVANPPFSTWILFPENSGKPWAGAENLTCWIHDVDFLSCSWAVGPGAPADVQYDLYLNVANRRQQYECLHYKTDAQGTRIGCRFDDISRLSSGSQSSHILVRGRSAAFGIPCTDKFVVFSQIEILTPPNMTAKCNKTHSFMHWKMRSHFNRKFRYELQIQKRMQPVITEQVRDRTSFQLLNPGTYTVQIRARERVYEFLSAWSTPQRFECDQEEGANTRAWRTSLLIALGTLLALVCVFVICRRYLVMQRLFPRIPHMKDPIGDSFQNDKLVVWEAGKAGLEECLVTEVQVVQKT
T3 sequence (Q04609 whole entry): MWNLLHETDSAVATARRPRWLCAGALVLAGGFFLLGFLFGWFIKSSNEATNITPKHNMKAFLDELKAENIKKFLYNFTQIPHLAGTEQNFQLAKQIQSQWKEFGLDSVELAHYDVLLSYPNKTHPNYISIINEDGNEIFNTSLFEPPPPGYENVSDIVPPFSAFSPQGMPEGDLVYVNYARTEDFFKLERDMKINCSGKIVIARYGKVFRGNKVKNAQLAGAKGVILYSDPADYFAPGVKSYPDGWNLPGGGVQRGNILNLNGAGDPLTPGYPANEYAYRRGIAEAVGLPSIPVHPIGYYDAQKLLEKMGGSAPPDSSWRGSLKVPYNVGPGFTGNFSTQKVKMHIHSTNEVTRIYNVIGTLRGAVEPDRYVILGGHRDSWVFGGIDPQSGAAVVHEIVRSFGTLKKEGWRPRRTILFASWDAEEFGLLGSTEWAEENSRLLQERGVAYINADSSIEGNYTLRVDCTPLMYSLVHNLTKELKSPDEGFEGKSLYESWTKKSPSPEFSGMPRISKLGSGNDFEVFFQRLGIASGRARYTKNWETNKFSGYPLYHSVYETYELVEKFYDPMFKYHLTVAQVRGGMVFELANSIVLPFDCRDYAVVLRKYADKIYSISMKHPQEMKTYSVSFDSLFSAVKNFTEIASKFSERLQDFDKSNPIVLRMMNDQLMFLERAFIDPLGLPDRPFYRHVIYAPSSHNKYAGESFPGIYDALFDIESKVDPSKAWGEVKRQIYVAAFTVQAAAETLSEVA

B1: Vβ17/Null (bispecific antibody, human IgG4 S228P, kappa, F234A L235A)
Vβ17 half antibody (B17B21; light chain, linker and heavy chain in one polypeptide): DIQMTQSPSSLSASVGDRVTITCRSSQSLVHSNGNTYLHWYQQKPGKAPKFLIYKVSNRFSGVPSRFSGSGSGTDFTLTISSLQPEDFATYYCSQSTHVPFTFGQGTKLEIKRTVAAPSVFIFPPSDEQLKSGTASVVCLLNNFYPREAKVQWKVDNALQSGNSQESVTEQDSKDSTYSLSSTLTLSKADYEKHKVYACEVTHQGLSSPVTKSFNRGECGGSEGKSSGSGSESKSTEGKSSGSGSESKSTGGSQVQLQESGPGLVKPSETLSLTCTVSGYSITSGYFWNWIRQPPGKGLEWIGYISYDGSNNYNPSLKSRVTISRDTSKNQFSLKLSSVTAADTAVYYCASPSPGTGYAVDYWGQGTLVTVSSASTKGPSVFPLAPCSRSTSESTAALGCLVKDYFPEPVTVSWNSGALTSGVHTFPAVLQSSGLYSLSSVVTVPSSSLGTKTYTCNVDHKPSNTKVDKRVESKYGPPCPPCPAPEAAGGPSVFLFPPKPKDTLMISRTPEVTCVVVDVSQEDPEVQFNWYVDGVEVHNAKTKPREEQFNSTYRVVSVLTVLHQDWLNGKEYKCKVSNKGLPSSIEKTISKAKGQPREPQVYTLPPSQEEMTKNQVSLSCAVKGFYPSDIAVEWESNGQPENNYKTTPPVLDSDGSFFLVSRLTVDKSRWQEGNVFSCSVMHEALHNRFTQKSLSLSLGK
null half antibody (B23B49; light chain, linker and heavy chain in one polypeptide): not shown
notes: also called Vβ17/NULL arm control bispecific antibody; Vβ17XNULL
The EC50 is the concentration giving half of the maximal effect. Higher therefore signals a less potent agent. Broadly, the EC50 (read off the curve) is the midpoint of the concentration-response curve. For B1, the EC50 amounted to 3.75 nM in assay [1], 2.8 nM in assay [2] and 2.4 nM in assay [3]. In addition, the figures for the binding result with CD123 on Kasumi-3 cells, with PSMA on 22Rv1 cells and with IL1RAP on H1975 cells [5] were “no binding (tested: about 5 µg/mL)”, “no binding (tested: 10 µg/mL)” and “no binding (tested: about 30 µg/mL)”, respectively. In assay [4], the concentration giving a half-maximal response (EC50 (read off the curve)) was around 0.3 µg/mL.

B2: Vβ17/IL1RAP bispecific antibody (bispecific antibody, human IgG4 S228P, kappa, lambda, F234A L235A)
chain 1: DIQMTQSPSSLSASVGDRVTITCRSSQSLVHSNGNTYLHWYQQKPGKAPKFLIYKVSNRFSGVPSRFSGSGSGTDFTLTISSLQPEDFATYYCSQSTHVPFTFGQGTKLEIKRTVAAPSVFIFPPSDEQLKSGTASVVCLLNNFYPREAKVQWKVDNALQSGNSQESVTEQDSKDSTYSLSSTLTLSKADYEKHKVYACEVTHQGLSSPVTKSFNRGECGGSEGKSSGSGSESKSTEGKSSGSGSESKSTGGSQVQLQESGPGLVKPSETLSLTCTVSGYSITSGYFWNWIRQPPGKGLEWIGYISYDGSNNYNPSLKSRVTISRDTSKNQFSLKLSSVTAADTAVYYCASPSPGTGYAVDYWGQGTLVTVSSASTKGPSVFPLAPCSRSTSESTAALGCLVKDYFPEPVTVSWNSGALTSGVHTFPAVLQSSGLYSLSSVVTVPSSSLGTKTYTCNVDHKPSNTKVDKRVESKYGPPCPPCPAPEAAGGPSVFLFPPKPKDTLMISRTPEVTCVVVDVSQEDPEVQFNWYVDGVEVHNAKTKPREEQFNSTYRVVSVLTVLHQDWLNGKEYKCKVSNKGLPSSIEKTISKAKGQPREPQVYTLPPSQEEMTKNQVSLSCAVKGFYPSDIAVEWESNGQPENNYKTTPPVLDSDGSFFLVSRLTVDKSRWQEGNVFSCSVMHEALHNRFTQKSLSLSLGK
chain 2: QSALTQPRSVSGSPGHSVTISCTGTSSDVGDYNYVSWYQQRPGKVPKLLIYDVSKRPSGVPDRFSGSKSGNTASLTISGLQAEDEAIYFCASYAGNYNVVFGGGTKLTVLGQPKAAPSVTLFPPSSEELQANKATLVCLISDFYPGAVTVAWKADSSPVKAGVETTTPSKQSNNKYAASSYLSLTPEQWKSHRSYSCQVTHEGSTVEKTVAPTECSGGSEGKSSGSGSESKSTEGKSSGSGSESKSTGGSQVQLVQSGSELKKPGASVKVSCKASGYTFNTYAMNWVRQAPGQGLEWMGWINTNTGNPTYAQGFTGRFVFSLDTSVSTAYLQISSLKAEDTAVYYCARRYFDWLLGAFDIWGQGTMVTVSSASTKGPSVFPLAPCSRSTSESTAALGCLVKDYFPEPVTVSWNSGALTSGVHTFPAVLQSSGLYSLSSVVTVPSSSLGTKTYTCNVDHKPSNTKVDKRVESKYGPPCPPCPAPEAAGGPSVFLFPPKPKDTLMISRTPEVTCVVVDVSQEDPEVQFNWYVDGVEVHNAKTKPREEQFNSTYRVVSVLTVLHQDWLNGKEYKCKVSNKGLPSSIEKTISKAKGQPREPQVYTLPPSQEEMTKNQVSLWCLVKGFYPSDIAVEWESNGQPENNYKTTPPVLDSDGSFFLYSRLTVDKSRWQEGNVFSCSVMHEALHNHYTQKSLSLSLGK
notes: also called Vβ17XIL1RAP
For B2, the results for the 50% effective concentration (EC50) (in [6]; with IL1RAP on H1975 cells [7]; in assay [8]) were 2.8 nM, 11.3 nM and 0.33 nM, respectively.
